Consider 2 proteins from publication PMC4089490, “Structures of the NLRP14 pyrin domain reveal a conformational switch mechanism regulating its molecular interactions” (Acta Crystallographica Section D: Biological Crystallography, 2014).

Series [1] concerns the molecule itself. Put plainly: SEC; analytical Superdex 75 10/300, 20 mM Tris pH 8.0, 150 mM NaCl, 5 mM TCEP; 700 µl at 1 mg/ml injected; monomer:dimer ratio from peak areas. In general terms: SEC sorts molecules by how far they enter the pores of the column.
In another series the target is Q86W24. Described as above.

Broadly, the stoichiometry N is a count of units in the complex or per binding partner.

B1: NLRP14 PYD (wild-type NLRP14 pyrin domain, residues Met1-Gln100) (domain or fragment, human, UniProt Q86W24 1-100, looked up)
chain: MADSSSSSFFPDFGLLLYLEELNKEELNTFKLFLKETMEPEHGLTPWNEVKKARREDLANLMKKYYPGEKAWSVSLKIFGKMNLKDLCERAKEEINWSAQ
notes: NLRP14 pyrin domain, human, residues Met1-Gln100, amplified from human NLRP14 cDNA GenBank NM_176822.3; The crystal structure (PDB 4n1j) was solved from selenomethionine-labelled protein expressed in SeMet minimal medium and purified identically; SEC used the native protein; also called wild-type NLRP14 PYD; wild-type PYD; source: E. coli BL21 Star (DE3), purified (Ni-NTA, eluted by thrombin …)
Regarding B1, the “stoichiometry N” value in series [1] is 2. The “dimer fraction (SEC peak area)” value in the series with Q86W24 is on record as “dimeric (17%)”.

B2: NLRP14 PYD D86V (protein)
chain: MADSSSSSFFPDFGLLLYLEELNKEELNTFKLFLKETMEPEHGLTPWNEVKKARREDLANLMKKYYPGEKAWSVSLKIFGKMNLKVLCERAKEEINWSAQ
Take B2: the “dimer fraction (SEC peak area)” value in the series with Q86W24 is 12.13 ml, 24%.
